Reference: the supplement of paper PMC10567573
± gives the standard deviation.

Assay: protein stability index of a GFP-peptide fusion (GPS, HEK-293T) (PSI 1-6); higher = more stable
[1] = treatment: DMSO, c terminus: a fixed tail appended
[2] = treatment: MLN4924 1 uM, 8 h, c terminus: a fixed tail appended
[3] = treatment: DMSO, c terminus: native
[4] = treatment: MLN4924 1 uM, 8 h, c terminus: native
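Note: 24-mer peptide tiles fused after GFP, lentivirally expressed, FACS-sorted into six equal bins by GFP/DsRed ratio, decoded by Illumina sequencing, PSI is the read-weighted mean bin number.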

Sequence	protein stability index [1]	protein stability index [2]	protein stability index [3]	protein stability index [4]
TQAHIQECKHPSVFQHGDNSFRLL [MCOLN1]	2.78 ± 0.11	2.92 ± 0.16	–	–
EIELQAQHNLRDSLENTLTESEAH [KRT34]	5.3 ± 0.27	5.18 ± 0.16	–	–
IKGKEGSALTEGAKEEGGEEVAKA [EPB41L3]	5.81 ± 0.17	5.86 ± 0.12	–	–
PPALQNNLLSPLLTGTESPFDLEQ [NFE2L1]	4.97 ± 0.29	5.04 ± 0.1	–	–
KLDPTLSSCFFIESCGAQVPVEGS	3.02 ± 0.41	3.04 ± 0.5	–	–
PSPSEVITPWTPSPSEKNSSFTWS [SMTNL2]	4.22 ± 0.095	4 ± 0.062	–	–
AQVFPESPESESDHEHEEADLELS [GNAS]	5.44 ± 0.27	5.46 ± 0.23	–	–
PLSPPPINYNGIFSLKQEETLDYG [NEUROD6]	4.63 ± 0.38	4.36 ± 0.37	–	–
FLPSLRPPPLTSPSHGSLSHSKAP [NCF4]	3.45 ± 0.13	3.63 ± 0.14	–	–
LSQPTTNLVAGCLQLNARSFMMGQ [NEUROD6]	2.31 ± 0.17	2.21 ± 0.26	–	–
YSDRTNIISKPVPQTLIMAYDYAK [FEM1C]	2.36 ± 0.24	2.49 ± 0.41	–	–
VVETVFFLTSRTRALLRRFPRMLL [ZSWIM9]	2.89 ± 0.095	2.87 ± 0.3	–	–
AQEVRPRRWKLQVLDLRKNSHQDF [PRAME]	2.64 ± 0.37	2.96 ± 0.31	–	–
SLCYLQLTRQLVSCSSDGGIAVWN [WDFY1]	2.87 ± 0.57	2.81 ± 0.46	–	–
EDSKELRALRKMVSNMSGPSGEEE [CBY2]	5.15 ± 0.21	5.25 ± 0.13	–	–
RVWLKRDSGQYWPSVYHAMPSPCS [WDFY2]	2.26 ± 0.27	2.33 ± 0.46	–	–
IEDLRAQIFANTVDNARIVLQIDN [KRT18]	2.6 ± 0.24	2.67 ± 0.35	–	–
EVTVQRNCCLTLCNFSIPEELEFQ [ZER1]	2.68 ± 0.26	2.59 ± 0.42	–	–
KIYFTDSSSKWQRRDYLLLVMEGT [APMAP]	2.68 ± 0.45	2.15 ± 0.37	–	–
TQIEDATEKLKANAESSKTWLKGK [TRIM14]	4.95 ± 0.37	5 ± 0.18	–	–
YCSIKCQQEHWHAEHKRTCRRKR [ZMYND11]	–	–	2.92 ± 0.61	3.51 ± 0.87
REMVMYSITVAFWLLNSWLWFRR [MFF]	–	–	2.27 ± 0.96	2.48 ± 0.86
HYAFRIFDFDDDGTLNREDLSRLV [CIB1]	2.55 ± 0.24	2.78 ± 0.31	–	–

Sequence	protein stability index [1]	protein stability index [2]	protein stability index [3]	protein stability index [4]
LLNTDLHGHNIGKKMSCQQFIANL [PSD2]	2.24 ± 0.29	2.46 ± 0.13	–	–
PYTELRKQPLRKYVTPSDFDQLKQ [EFHC1]	3.57 ± 0.2	3.51 ± 0.11	–	–
LEENELTSLAEDLLGLTDPNGGLA [TRADD]	4.49 ± 0.27	4.43 ± 0.29	–	–
LLLLLLASLLPSARLASPLPREEE [ADAMTS4]	2.56 ± 0.07	3.08 ± 0.55	–	–
MVGGNAVPQRTAGGDVPERELYIR [MYORG]	3.9 ± 0.28	4.29 ± 0.16	–	–
SILRELDTSMDGTEPPQNPVTPLG [SERTAD3]	4.35 ± 0.13	4.38 ± 0.18	–	–
VHRQLGEANEEFALRVQQLVAKEL [AUP1]	3.79 ± 0.076	3.88 ± 0.1	–	–
VPQLVTGRCATRAFHRKSHSLDLN [RNF180]	2.35 ± 0.2	2.6 ± 0.41	–	–
RCRLSLDDRVLSSLVRDTIARVHG [POP5]	2.29 ± 0.25	2.35 ± 0.27	–	–
GKVLQNKQAEICQLEEKLEIANED [CCDC89]	5.26 ± 0.37	5.44 ± 0.25	–	–
YSAIDRVKSRGKRLALEKVPKVGQ [PI4K2A]	4.04 ± 0.33	4.12 ± 0.27	–	–
HWACKRNHGQVVSYLLKSGADKEI [ANKRD40]	2.59 ± 0.24	2.66 ± 0.28	–	–
MSKLGKFFKGGGSSKSRAAPSPQE [CHMP4C]	3.56 ± 0.33	3.76 ± 0.38	–	–
IRQLATSGRFIVIIPRTVIDGLDL [SMG5]	2.88 ± 0.61	2.68 ± 0.7	–	–
SPVSRNRLAQVKRKILVLDLDETL [CTDNEP1]	2.6 ± 0.35	2.77 ± 0.36	–	–
QDVVQAADLLLLTDLKTLCCEFLE [GAN]	2.55 ± 0.13	2.6 ± 0.27	–	–
SIEVGGSVNFDGETIEGAPPLWAA [FEM1C]	3.92 ± 0.28	4.12 ± 0.34	–	–
TMIQQQNMQQPMNVMTQSFGAVNL [CLINT1]	2.69 ± 0.39	2.94 ± 0.39	–	–
SYLMDHFIPSSHNDRDFLTRIFTE [PPEF2]	2.5 ± 0.19	2.51 ± 0.28	–	–
TNMARIREIMEKFGKQPVSLPARR [CPXM2]	2.72 ± 0.1	3.06 ± 0.31	–	–
RYNDFVVFQEMLLHKFPYRMVPAL [SNX8]	2.51 ± 0.41	2.22 ± 0.27	–	–
LPMWSNQTWNNSTWSNQTQNIQSW [NANOGP8]	2.45 ± 0.38	2.56 ± 0.27	–	–
DNWIPLLWCANILGYAVSTFAMVK [DHCR7]	3.04 ± 0.44	3.17 ± 0.12	–	–

Sequence	protein stability index [1]	protein stability index [2]	protein stability index [3]	protein stability index [4]
HSKLTDREKTNICYLSFPDSNSGC [DENND6A]	3.32 ± 0.26	3.39 ± 0.3	–	–
RALEEVEMKLQKNFLTQRENTIAG [C10orf62]	3.48 ± 0.081	3.73 ± 0.33	–	–
WRITNAKGDVEEVQGPGVVGEFPI [FBXO3]	3.75 ± 0.34	3.84 ± 0.48	–	–
STPLMEAAQEGHLELVKYLLAAGA [ANKRD17]	2.22 ± 0.15	2.48 ± 0.65	–	–
FPNQKSEAAEPPKTPPSSCDSTNA [KMT5A]	5.52 ± 0.13	5.53 ± 0.2	–	–
QLSRELSTLRNLFKQLPEPLLASS [CEBPB]	2.28 ± 0.1	2.37 ± 0.29	–	–
DYMKEVGVGFATRKVAGMAKPNMI [FABP4]	3.13 ± 0.48	3.06 ± 0.64	–	–
AGGFQQRQGLKYCLPLTFCIHTGL [FBXO3]	2.58 ± 0.57	2.4 ± 0.24	–	–
YYRGFTLFQTHENREHLVMMEKIL [CLK3]	2.31 ± 0.31	2.34 ± 0.37	–	–
QNVVVKTLWKHQFAWPFYQPVDAI [BRD3]	2.31 ± 0.46	2.29 ± 0.45	–	–
QVQCHSYTGYCWCVTPNGRPISGT [SMOC2]	2.08 ± 0.26	2.37 ± 0.38	–	–
YEDTNGQPQALLVDGDQSKILISG [TNXB]	4.99 ± 0.13	4.73 ± 0.12	–	–
DSYSSTQHVPEELDLSSSSQMSPL [ATF6]	5.29 ± 0.12	5.28 ± 0.073	–	–
HETESTSDKETDIDDRYGDLDSRT [CDS1]	5.42 ± 0.19	5.6 ± 0.22	–	–
AAYFLLSTNDKTVKLWKVSERDKR [PPP2R2B]	2.51 ± 0.51	2.49 ± 0.26	–	–
EHICVNNGNSYICKCSEGFVLAED [MATN2]	4.61 ± 0.15	4.26 ± 0.53	–	–
QMASQSSASHYKLQVIKALKSSGL [M1AP]	2.82 ± 0.26	2.77 ± 0.21	–	–
EPAPGSALSPAGVCGGAQRPGHLP [CDC25B]	4.6 ± 0.15	4.49 ± 0.21	–	–
DVDLTIHGRHIDCPATWGPSVEQA [FOXJ1]	3.95 ± 0.16	3.94 ± 0.3	–	–
EREEEDDALDSEGRDSEGPAEGEG [KCNG1]	5.55 ± 0.29	5.74 ± 0.12	–	–
SQSFSLYVKYQVAIHQDPPDECGK [ATE1]	2.75 ± 0.37	2.5 ± 0.35	–	–
DASVQPGPFRTLLQFLYTGQLDEK [RHOBTB1]	2.51 ± 0.33	2.72 ± 0.3	–	–
FHYVDILALLPAAWEDSHGSQDGH [SCNN1D]	2.26 ± 0.56	2.13 ± 0.25	–	–

Sequence	protein stability index [1]	protein stability index [2]	protein stability index [3]	protein stability index [4]
SLWERLEFVNGWYILLVTSDVLTI [MCOLN1]	3.5 ± 0.68	3.08 ± 0.45	–	–
RYIHSMSLVHMDIKPSNIFISRTS [WEE1]	1.9 ± 0.47	2.46 ± 0.31	–	–
PRNKTENGLTPKKKIQVNSKPSIQ [ATF6]	4.24 ± 0.31	3.96 ± 0.17	–	–
LTISAAFNIVYIYTSELYPTVIRN [SLC22A15]	3.19 ± 0.14	3.13 ± 0.33	–	–
ENMVTVGFFSCMGTLCIGAAAFSQ [KCNK9]	3.39 ± 0.5	2.91 ± 0.16	–	–
MSWEKEEGKSRHVDFQCVKSKSIT [BTBD10]	4.48 ± 0.085	4.42 ± 0.2	–	–
LVVPNKGYSSLDQSPDEKPLVALD [FAM219A]	4.45 ± 0.17	4.42 ± 0.25	–	–
SYLHAKKYLKPSGNMFPTIGDVHL [CARM1]	2.35 ± 0.39	2.64 ± 0.52	–	–
KLKESTVRRRYSDFEWLRSELERE [SNX3]	2.99 ± 0.44	3.13 ± 0.31	–	–
QEILHRDLKLGNFFINEAMELKVG [PLK2]	2.58 ± 0.25	2.76 ± 0.31	–	–
DDDAQILPSPVQACSEDSLFLRCS [DRICH1]	4.17 ± 0.16	4.02 ± 0.37	–	–
KVNQNQAKRCTVIGGSGFLGQHMV [NSDHL]	2.22 ± 0.21	2.07 ± 0.2	–	–
EFQMFPKSRLSSVSVTYCSVSQDF [ETS2]	2.23 ± 0.25	2.15 ± 0.21	–	–
LAQAAGFAPQTGARPSETFARFCK [DNAAF3]	3.52 ± 0.23	3.57 ± 0.4	–	–
GLLWLLLGSAGAQYEKYSFRGFPP [P3H4]	3.08 ± 0.098	3.71 ± 0.62	–	–
TDFYLIFNDVAKFLKQGDSADETT [CMTM3]	2.75 ± 0.31	2.6 ± 0.33	–	–
AVHLCNALVCQVDNDHKEAVGKMG [ZER1]	3.75 ± 0.23	3.77 ± 0.13	–	–
TLARMSRRTRGPVERAAAAAAAAA [C6orf223]	3.02 ± 0.56	3.43 ± 0.91	–	–
YYPRVQHYRELLDSLPMDAYTHGC [GDAP1]	2.21 ± 0.17	2.32 ± 0.23	–	–
TAKRINRTSLSSGATVRSFSINSR [CDC14A]	3.26 ± 0.41	3.6 ± 0.12	–	–
